Sequences and labels used below:
B1: TPR 5TU (parent)
chain: GGAUCUUCUCGAUCUAACAAAAAAGACAAAUCUGCCACAAAGCUUGAGAGCAUCUUCGGAUGCAGAGGCGGCAGCCUUCGGUGGCGCGAUAGCGCCAACGUUCUCAACUAUGACACGCAAAACGCGUGCUCCGUUGAAUGGAGUUUAUCAUG

Consider 19 variants from the RNAGym collection of RNA variant scans (doi:10.1073/pnas.2313332121).

Fewer inactive variants are shown than the library holds.

In the data set the parent is B1. In words: polymerase ribozyme fitness, log enrichment relative to wild type (log ratio); higher = more active; in vitro selection for triplet polymerase activity. In a few lines:
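Input and output libraries were sequenced on Illumina after a single in vitro selection round, run in triplicate on PCR-built, transcribed mutant libraries of each subunit of a heterodimeric triplet polymerase ribozyme. Selection annealed libraries to a biotinylated primer, the partner subunit and triplets, incubated them frozen at −7 °C, then gel-excised extended constructs for streptavidin-bead capture and RT-PCR. Genotypes with ≥10 input reads and ≥1 read per output were kept. Fitness is the logarithm, taken in base 2, of genotype enrichment divided by wild-type enrichment, using inverse-variance-weighted replicate averages.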
With GGAUCUUCUCGAUCUAACAAAAAAGACAAAUCUGCCACAAAGCUUGAGAGCAUCUUCGGAUGCAGAGGCGGCAGCCUUCGGUGGCGCGAUAGCGCCAACUUUCUCAACUAUGACACGCAAAACGCGUGCUCCGUUGAAUGGAGUUUAUCAAG [G100U U151A], the “polymerase ribozyme fitness (log ratio)” value is at most -4.2.

For GGAUCUUCUCGAUCUAAUAAAAAAGACAAAUCUGCUACAAAGCUUGAGAGCAUCUUCGGAUGCAGAGGCGGCAGACUUUGGUGGCGCGAUAGCGCCAACGUUCUCAACUAUGACACGAAAAACGCGUGCUUCGUUGAAUGGAGUUUAUCAUG [C18U C36U C75A C79U C118A C131U], the “polymerase ribozyme fitness (log ratio)” value was at most -4.2.

For the variant GGAUCUUCUCGAUCUAACAAAAAAGACAAAUCUGCCACAAAGCUUGAGAGCAUCUACUGAUGCAGAGGCGGCAGCCUUCGGUGGCGCGAUAGCCCCAACGUUCUCAACUAUGACACGCAAAACGCGUGCUCCGUUGAAUGGAGUGUAUCAUG [U56A G58U G94C U145G], the “polymerase ribozyme fitness (log ratio)” value stood at 0.0333.

For the variant GGAUCUACUCGAUCUAACAAAUAAGACAAAUCUGCCACAAAGCAUGAGAGUAUCUUCGGAUGCAGAAGCGGCAGCCUUCGGUGGCGCGAUAGCCCCAAUGUUCUCAACUAUGACACGCAAAACGCGUGCUCCGUUGAAUGCAGUUUAUCAUG [U7A A22U U44A C51U G67A G94C C99U G141C], the “polymerase ribozyme fitness (log ratio)” value is at most -4.2.

In the case of GGAUCUUCUCGAUCUAACAAAAAAGACAAAUCUGCCACAAAGCUUGAGAGCAUCUUCGGAUGCAGAGGCGGCAGCCUUCGGUGGCGCGAUAUCGCCAACGUUCUCAACUAUGACACGCAAAACGCGUGCUCCGUUGAAUGCAGUUAAUCAUG [G92U G141C U146A], the “polymerase ribozyme fitness (log ratio)” value was -0.994.

Consider GGAUCUUCUCGAUCUAACAAAAAAGACAAAUCUGCCACAAAGCUUGAGAACAUCUUCGGAUGCAGAGGCGGCAACCUCCGGUGGCGCGAUAGCGCCAACGUUCUCAACUAUGGCACGCAAAACCCGUGCUCCGUUGAAUGGAGUUUAUCAUG [G50A G74A U78C A113G G124C], for which the “polymerase ribozyme fitness (log ratio)” value is at most -4.2.

GGAUCUUCUCGAUCUAACAAGAAAGACAAAUCUGCCACAAAGCUUGAGAGCAUAUUCGGAUGCAGAGGCGGCAGCCUUCGGUGGCGCGAUAGCGCCAACGUUCUCAACUAUGACACGCAAAACGCGUGCUCCGUUGAAUGGAGUUUAUCAUG [A21G C54A]: the “polymerase ribozyme fitness (log ratio)” value was -0.617.

GGAUCUUCUCGAUCUAACAAAAAAGACAAUUCUGCCACAAAGCUUGAGAGCAUCUUCGGAUGCAGAGGCGGCAGCCUUCGGUAGCGCGAUAGCGACAACGUUCUCAACUAUGACACGCAAAACGCGUGCUCCGUGGAAUGGAGUUUAUCAUG [A30U G83A C95A U135G]: the “polymerase ribozyme fitness (log ratio)” value is at most -4.2.

Turning to GGAUCUUCUCGAUCUCACAAAAAUGACAAAUCUGCCACAAAGCUUGAGAGCAUCUUCAGAUGCAGAGGCGGCAGCCUUCGGUGGCGCGAUAUCGCCAACGUUCUCAACUAUGACACGCAAAACGCGUGCUCCGUUGAAUGGAGUUUAUCAUG [A16C A24U G58A G92U], the “polymerase ribozyme fitness (log ratio)” value was -2.2.

Consider GGAUCUUCUCGAUCUAACAAAAAAGACAAAUCUGCCACAAAUCUUGAGAGCAUCUUCGGAUGCAGAGGCGGCAGCCUUCGGUGGCGCGAUAGAGCUAACGUUCUCAACUAUGACACGCAAAACGCGUGCUCCGUUGAAUGGAGUUUAUCAUG [G42U C93A C96U], for which the “polymerase ribozyme fitness (log ratio)” value is at most -4.2.

In the case of GGAUCUUCUCGAUCUAACAAAAAAGACAAAUCUGCCAUAAAGCUUGCGAGCAUCUUCGGAUGCAGAGGCGGCAGCCUUCGGUGGCGCGAUAGCGCCAACGUCCUCAACUAUGACACGCUAAACGCGUGCUCCGUUGAAUGGAGUUUAUCAUG [C38U A47C U102C A119U], the “polymerase ribozyme fitness (log ratio)” value is -3.66.

GGAUCUUCUCGAUCUAACAAAAAAGACAUAUCUGCCACAAGGCUUGACAGCAUCUUCGGAUGCAGAGGCGGCAGCCUUCGGUGGCGCGAUAGCGCCAACGUUCUCAACUAUGACACGCAAAACGCGUGCUCCGUUGAGUGGAGUUUAUCAUG [A29U A41G G48C A138G]: the “polymerase ribozyme fitness (log ratio)” value was at most -4.2.

GGAUCUUCUCGAUCUAACAAAAAAGACAAAUCUGCCACAAAGCUUGAGAGCAUCGUCGGAUGCAGAGGCGGCAGCCUUCGGUGGCGCGAUAGCGCCAACGUUCUCAACUAUGACACGCAAAACGCGUGCUCCGUUGAAUGGAGUUUAUCAUG [U55G]: the “polymerase ribozyme fitness (log ratio)” value was -0.284.

Take GGAUCUUCUCGAUCUAACAAAAAAGACAAAUCUGCCACAAAGCUUGAGAGCAUCUUCGGAUGCAGAGGCGGCAGCCUUCGGUGGCGCGAUAGCGCCAACGUUCUCAACUAUGACACGCAAUACGCGCGCUCCGUUGAAUGGACUUUAUCAUG [A121U U127C G143C]: the “polymerase ribozyme fitness (log ratio)” value was -4.06.

GGAUCUUCUCGUUCUAACAAAGAAGACAAAUCUGCCACAAAGCUAGAGUGCAUCUUCGGAUGCAGAGGCGGCAGCCUUCGGUGGCGCGAUAGCGCCAACGUUCUCAACUAUGACGCGCAAAACGCGUGCUCCGUUGAAUGGAGUUUAUCAUG [A12U A22G U45A A49U A115G]: the “polymerase ribozyme fitness (log ratio)” value is at most -4.2.

As to GGAUCUUCUCGAUCUAACAAAAAAGACAAAUCUGCCACAAAGCUUGAGGCCAUCUUCGGAUGCAGAGGGGGCAGCCUUCGGUGGCGCGAUAGCGCCAACGUUGUCAACUAUGACACGCAAAACGCGUGCUCCGUUUAAUGGAGUUUAUCAUG [A49G G50C C69G C103G G136U], the “polymerase ribozyme fitness (log ratio)” value is at most -4.2.

In the case of GGAUCUUCUCGAUCUAACAAAAAAGACAAAUCUGCCAUAAAGCUGGAGAGCAUCUUCGGAUGCAGAGACGGCAGCCUUCGUUGGCGGGAUAGCGCCAGCGUUCUCAACUAUGACACGCAAAACGCGUGCUCCGUUGAAUGGAGUUUAUCAUG [C38U U45G G68A G81U C87G A98G], the “polymerase ribozyme fitness (log ratio)” value was at most -4.2.

As to GGAUCUUCUCGAUCUAACAAAAAAGACAAAUCUGCCACAAAGCUUGAGAGCAUCUUCGGAUGGAGAGGCGGCAGCCUUCGGUGGUGCGAUAGCGCCAACGUUCUCAACUAUGACACGCAAAACGCGUGCUCCGUUGAAUGGAGUAUAUCAUG [C63G C85U U145A], the “polymerase ribozyme fitness (log ratio)” value stood at 0.338.

Take GGAUCUUCUCGAUCUAACAAAAAAGACAAAUCUGACACAAAGCUUGAGAGCAUCUUCGGAUGCAGAGGCGGUAGCCUUCGGUGGCGCGAUAGCGCCAACGUUCUCAACUAUGACACGAAAAACGCCUGCUCCGUUGAAUGGAGUUUAUCAUG [C35A C72U C118A G126C]: the “polymerase ribozyme fitness (log ratio)” value was at most -4.2.
